Experimental findings from patent US7687489B2, “Agent for treatment of cerebral ischemic diseases” (Ono Pharmaceutical Co., Ltd., priority 2001, dated 2010) are described below.

In the test the test system is thrombin-induced focal cerebral ischemic model. Put plainly: Thrombin-induced focal cerebral ischemic model: survival and neurological symptom score. It counts as in vivo, male Wistar rats. On the procedure:
Twenty male Wistar rats (8-weeks age) were used as one group. The rats were anesthetized with halothane, followed by incision and then subjected to carotid artery shunting. A polyethylene catheter containing thrombin (10 international units) was catheterized into the carotid artery, and […] of blood was sucked and reserved in the catheter for 10 minutes. Then, thrombus formed in the catheter was infused into the carotid artery together with thrombin (J. Cereb. Blood Flow Metab., 17, 123 (1997)).
The neurological symptoms of said rats were scored according to the method as described in Brain Res., 452, 323 (1988). The evaluation of score was carried out at 6 hours, 24 hours, 48 hours and 72 hours after infusion of thrombin, and the scores were accumulated. The survival period was determined by monitoring surviving or dead rats at intervals of one hour for the first 72 hours after the infusion of thrombin.
From forty minutes after thrombin infusion, t-PA (Activacin 100,000 international units, product of Kyowa Hakko Kogyo Co., Ltd.) was continuously administered in an amount of 33 μL/min to the anesthetized rats for 15 minutes. (R)-2-propyloctanoic acid (hereinafter referred to as compound A) in an amount of 10 mg/mL/kg was administered through tail vein of the rats three times at 6 hours, 24 hours and 48 hours after the infusion of thrombin.

[1] abbreviates: accumulated score, rats surviving 72 h, average ± standard error.

B1: t-PA: tissue plasminogen activator, thrombolytic agent (Activacin, product of Kyowa Hakko Kogyo Co., Ltd.) (protein, UniProt P00750 36-562, looked up)
Tissue-type plasminogen …: SYQVICRDEKTQMIYQQHQSWLRPVLRSNRVEYCWCNSGRAQCHSVPVKSCSEPRCFNGGTCQQALYFSDFVCQCPEGFAGKCCEIDTRATCYEDQGISYRGTWSTAESGAECTNWNSSALAQKPYSGRRPDAIRLGLGNHNYCRNPDRDSKPWCYVFKAGKYSSEFCSTPACSEGNSDCYFGNGSAYRGTHSLTESGASCLPWNSMILIGKVYTAQNPSAQALGLGKHNYCRNPDGDAKPWCHVLKNRRLTWEYCDVPSCSTCGLRQYSQPQFRIKGGLFADIASHPWQAAIFAKHRRSPGERFLCGGILISSCWILSAAHCFQERFPPHHLTVILGRTYRVVPGEEEQKFEVEKYIVHKEFDDDTYDNDIALLQLKSDSSRCAQESSVVRTVCLPPADLQLPDWTECELSGYGKHEALSPFYSERLKEAHVRLYPSSRCTSQHLLNRTVTDNMLCAGDTRSGGPQANLHDACQGDSGGPLVCLNDGRMTLVGIISWGLGCGQKDVPGVYTKVTNYLDWIRDNMRP
With B1, the “Survival rate after 72 hours” value (72 hours after thrombin infusion, 20 rats per group, * p<0.05 vs control (Log-rank test)) is on record as 35.0%. For the same molecule, for the setting “72 hours after thrombin infusion, 20 rats per group, t-PA infused from 40 min for 15 min, compound A 10 mg/mL/kg i.v. at 6, 24, 48 h”, the “No. of surviving rats” value is given as 7. Also, under setting [1], the “Neurological symptom score, 0 to 6 hours” value came out at 3.4 ± 0.2; the “Neurological symptom score, 0 to 24 hours” value was 3.4 ± 0.2; the “Neurological symptom score, 0 to 48 hours” value was found to be 3.1 ± 0.3; the “Neurological symptom score, 0 to 72 hours” value worked out at 3.0 ± 0.3.
